These results are taken from IntAct's records for PubMed 18959476.

For this assay, the target named is mthK, O27564-2.

With “Calcium-gated potassium channel MthK (Methanobacterium thermoautotrophicum) (from UniProt O27564-1) L3D”, the “effect of a mutation on the interaction” value is given as “disrupting interaction”.
